Measured values published in the supplement of paper PMC9732359.
± gives the uncertainty stated by the source.

Assay: protein stability index of a GFP-peptide fusion (yeast GPS) (PSI 1-4); higher = more stable; sorted into four equal gates, so the index is relative within each strain
Settings: ubr1∆
How it was run: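 Peptides tiling yeast proteins in 17-residue segments were fused downstream of GFP, with Cherry expressed from the same plasmid. As a pooled library in yeast, mid-log cultures grown in leucine-free medium were sorted into four equal gates by GFP/Cherry fluorescence ratio. Gate plasmids were PCR-amplified and Illumina-sequenced, and barcodes linked reads to strains. Each peptide received a protein stability index equal to the sum of each gate's read frequency times its gate number.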

| Sequence | protein stability index |
| --- | --- |
| FKLGKFNYVAVGDVSNL [QCR2] | 2.83 ± 0.068 |
| FKNDFNSFYYTSLLYLS [RPN9] | 1.25 ± 0.099 |
| FKQAKERVMKNKVEENL [RPT2] | 3.29 ± 0.11 |
| FKVRTNLNDKFGIYILT [MED1] | 1.92 ± 0.042 |
| FKYVSVRYEEKRELKQL [BRR2] | 3.13 ± 0.05 |
| FLFHAISGREGLVDTAV [RPO31] | 2.55 ± 0.13 |
| FLGEQVNEPTKNEEAEI [RPN1] | 3.56 ± 0.26 |
| FLIDVLKIYAQIEKKEI [YCG1] | 1.4 ± 0.054 |
| FLLEKAGERKIPHDLNF [TAF14] | 2.47 ± 0.046 |
| FLNSNAVVVGTGNIKHE [COR1] | 1.24 ± 0.12 |
| FLQSQRQQQQRSILQSL [SWI1] | 1.55 ± 0.054 |
| FLTNELIRLQMEKLDAK [SWI3] | 2.96 ± 0.078 |
| FMEAQGAGIQIIMQADL [FAS2] | 2.11 ± 0.083 |
| FMKKLRAAKLAAPENEK [RPS15] | 3.48 ± 0.22 |
| FMTKLLEVANDLQLLYV [IRR1] | 1.24 ± 0.045 |
| FNAGSNPPSYQSSEDVI [RPB7] | 2.65 ± 0.14 |
| FNEKFPSLIQEEEEDTT [NUT1] | 3.06 ± 0.078 |
| FNFFEPIKEAKIKHGSV [YMR129W/POM152] | 2.83 ± 0.046 |
| FNKNLGKGPGCGFWQPA [PRP8] | 3.54 ± 0.075 |
| FNNEKETEKFALERNWP [RPN12] | 2.84 ± 0.037 |
| FNSVVNLSRYPKSGIDI [MTR3] | 3.03 ± 0.075 |
| FNVPVVSKQLGNGLVDE [YAR002W/NUP60] | 2.99 ± 0.14 |
| FPNIAIRPTELRLPFSA [PRP8] | 2.23 ± 0.076 |
| FPQGLNIVMDSKQNGIE [SSN8] | 2.61 ± 0.1 |

| Sequence | protein stability index |
| --- | --- |
| FPRSRSRSRSSIRSISP [ESC2] | 3.34 ± 0.19 |
| FQALDSEETQFKYVEDR [ITC1] | 3.45 ± 0.14 |
| FRALGIIPDGEILEHIC [RPB2] | 2.79 ± 0.047 |
| FRISLGLPVGAIMNCAD [RPL23A] | 1.7 ± 0.035 |
| FRKVKLRVDEVQGKNLL [RPS1B] | 3.28 ± 0.074 |
| FSEEKAEEFDFNVPVVS [YAR002W/NUP60] | 1.15 ± 0.12 |
| FSFGAKPAEKNNNETSK [YJL041W/NSP1] | 3.08 ± 0.24 |
| FSKGDADVLVDRVVSSD [SRP72] | 3.04 ± 0.081 |
| FSKIAEYYRIQKQLPQK [ESC2] | 3.19 ± 0.17 |
| FSNRFLPVASPFHSHLL [FAS1] | 2.76 ± 0.098 |
| FSQKANKTKAVDNTVPS [YOR098C/NUP1] | 2.17 ± 0.046 |
| FSRRFDCRDVYCHEKEL [CSN9] | 2.99 ± 0.19 |
| FSSLAISEINFLHESSF [CSI1] | 2.53 ± 0.039 |
| FTAEGIVPDLIINPHAI [RPB2] | 2.67 ± 0.082 |
| FTKKPVTPNDKIPEREE [SIR4] | 3.1 ± 0.063 |
| FTKNEEKLLKELENNEF [ITC1] | 2.24 ± 0.27 |
| FTNPSIVKVFHGAFMDI [RRP6] | 1.38 ± 0.049 |
| FTNRSTMMANFEEWIKM [BRN1] | 2.65 ± 0.054 |
| FTNVLTKYSDVLGFLQL [YJL039C/NUP192] | 2.01 ± 0.052 |
| FTNVPLNLEQVTLNKYC [YJL039C/NUP192] | 2.14 ± 0.045 |
| FTRIFLPIYDSLMSSQN [SIR3] | 2.21 ± 0.037 |
| FVDDMLRDYRFEDATRE [SNF5] | 3.35 ± 0.046 |
| FVDLNEKELQNEIKQLG [SRB4] | 2.78 ± 0.14 |
| FVEVERARVTKDLVEIK [RPN5] | 3.56 ± 0.058 |

| Sequence | protein stability index |
| --- | --- |
| FVIGVIIGTFSDSYKVS [RRP40] | 2.23 ± 0.078 |
| FVIHIQEKNFQTGIFVY [RPB5] | 1.88 ± 0.081 |
| FVMKTRRRKGISTGGFM [SNU114] | 3.18 ± 0.11 |
| FVRQAAMIALSMILIQQ [RPN2] | 1.82 ± 0.14 |
| FYAAVQKNYADPEKDSI [SIN4] | 1.59 ± 0.046 |
| GAEVLIKGSKLSLGEAF [COR1] | 2.37 ± 0.1 |
| GAHKFLDTYLPEDLNSL [SIR2] | 1.81 ± 0.064 |
| GALEEITKDHKVLARQQ [FAS2] | 2.73 ± 0.17 |
| GALIHKAGLMTGGISGD [SMC1] | 2.75 ± 0.087 |
| GARFDDGAGGDNEVQRT [RPT1] | 3.52 ± 0.083 |
| GARPGRVARRNAARKAE [RPS9A] | 3 ± 0.098 |
| GATYRGKLVESEDSMNV [SMD3] | 3.33 ± 0.055 |
| GCLHKGKLISNLSSTPM [YML031W/NDC1] | 2.05 ± 0.19 |
| GCNNLIKNISNRVGLTL [ARP9] | 3.14 ± 0.057 |
| GCVSYSPAALKQLASLK [YMR153W/NUP53] | 2.62 ± 0.078 |
| GDIVRMLETAGFSMNNP [SMC3] | 3.16 ± 0.054 |
| GDLKLQVLLDEEYKQLV [RPO21] | 3.2 ± 0.062 |
| GDLVYARVCTAEKELEA [RRP40] | 1.2 ± 0.23 |
| GEGSTVNASVDVDQHGN [SWI3] | 3.35 ± 0.19 |
| GEHEKSNILLNSLTKYP [MED1] | 1.69 ± 0.068 |
| GEIVSINQINEAHPTKV [RPL20A] | 2.77 ± 0.092 |
| GELDVLQIESVTKETVH [PRP8] | 2.76 ± 0.064 |
| GELLHHPIMETIVNDSN [RPN9] | 2.97 ± 0.078 |
| GETIKSNAVTQTNIWEE [SEM1] | 3.43 ± 0.14 |

| Sequence | protein stability index |
| --- | --- |
| GFSFGSQLGGNKTVNEA [YJL041W/NSP1] | 3.22 ± 0.048 |
| GFVRNSFFSGLSPPEFL [RPO31] | 3.13 ± 0.052 |
| GGALDNPFEDDMDGVDF [BRN1] | 3.41 ± 0.057 |
| GGDVVKFQKLLQNSERD [SMC4] | 2.96 ± 0.052 |
| GGESAYFFQLQIRSADE [RPC11] | 3.22 ± 0.062 |
| GGESMEGPKKCIQVNCL [SNM1] | 1.79 ± 0.054 |
| GGNNNNNSTGIANDNVI [SWI1] | 3.14 ± 0.044 |
| GGQTKPVFHKKAKTTKK [RPL42A] | 2.89 ± 0.045 |
| GGSFGNREEFINKLVKS [RPL7A] | 2.93 ± 0.077 |
| GGSGAATFSVSQASSDL [CSL4] | 3.36 ± 0.06 |
| GHIAKLMATEYQDIEGG [RPB2] | 3.18 ± 0.13 |
| GHSLGEYAALASLADVM [FAS1] | 2.6 ± 0.059 |
| GIFEKAKAKAVTSKVRN [YMR153W/NUP53] | 2.38 ± 0.085 |
| GIFNLLNTLFNPVTLNE [NUT1] | 1.92 ± 0.048 |
| GIKATNGVVIATEKKSS [PRE8] | 3.09 ± 0.11 |
| GIVSVSDPQMKVFDTLT [RPN1] | 2.82 ± 0.13 |
| GKGESVIFNDNVTETYS [SIR3] | 2.87 ± 0.2 |
| GKGHLVGRLASVVAKQL [RPL16A] | 1.32 ± 0.05 |
| GKGNTFEKVGSHLYKAR [RPN14] | 3.27 ± 0.13 |
| GKILTIKQQQQQQQQQN [YML103C/NUP188] | 2.96 ± 0.049 |
| GKIRGVEDDLVTVQTEL [SMC2] | 2.85 ± 0.076 |
| GKKLTDEINTAQDKWHL [RET1] | 2.95 ± 0.13 |
| GKLFSDIKVLKRQLIKE [YIL149C/MLP2] | 2.42 ± 0.04 |
